Test [1] addresses FGF receptor on Balb/c 3T3 cells. Put plainly: competition with [125I]-bFGF on Balb/c 3T3 cells, no heparin.
Test [2] shares this target. Kind of test: competition with [125I]-bFGF on Balb/c 3T3 cells, 1 ug/ml heparin.
Test [3] has the same target.
Test [4] deals with FGF receptor on bovine adrenal cortex capillary endothelial (ACE) cells (bovine) (UniProt P12820).

KR128, 129ST, sequence (P09038 134-288 K261S/R262T limits assumed): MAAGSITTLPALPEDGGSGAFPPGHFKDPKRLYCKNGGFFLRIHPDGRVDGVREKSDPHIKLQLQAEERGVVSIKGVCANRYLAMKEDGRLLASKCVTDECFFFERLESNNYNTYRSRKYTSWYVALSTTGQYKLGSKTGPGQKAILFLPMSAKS
bFGF-C78/96S, sequence (P09038 134-288 C211S/C229S limits assumed): as the sequence (P09038 134-288 K261S/R262T limits assumed) above, with C78S, C96S, S128K, T129R counted along it

As to “bFGF-R53L (from UniProt P09038-2) (ligand)”, the FGF-Rc Comp. (ED50 analog / ED50 wild type FGF) in test [1] is 0.22; in test [2] it was 0.25.
Regarding “bFGF-R129T (from UniProt P09038-2) (ligand)”, in test [1], the FGF-Rc Comp. (ED50 analog / ED50 wild type FGF) turned out to be 1.3. In addition, the FGF-Rc Comp. (ED50 analog / ED50 wild type FGF) in test [2] came to 0.5. In test [3], the 3T3 Mito., 1 ug/ml heparin (ED50 wild type / ED50 analog x 100%) (% of wild type) was determined as 190 and the 3T3 Mito., no heparin (ED50 wild type / ED50 analog x 100%) (% of wild type) turned out to be 87.
For the substance “bFGF-N113S (from UniProt P09038-2) (ligand)”, the FGF-Rc Comp. (ED50 analog / ED50 wild type FGF) in test [1] and in test [2] was 1 throughout. This substance showed a 3T3 Mito., no heparin (ED50 wild type / ED50 analog x 100%) (% of wild type) in test [3] of 160.
As to “bFGF-C78S (from UniProt P09038-2) (ligand)”, the FGF-Rc Comp. (ED50 analog / ED50 wild type FGF) in test [1] came to 0.3; in test [2] it was 0.25.
For “bFGF-K55M (from UniProt P09038-2) (ligand)”, in that order: 0.4 and 0.4.
“bFGF-Y112A (from UniProt P09038-2) (ligand)”: the FGF-Rc Comp. (ED50 analog / ED50 wild type FGF) in test [1] and in test [2] was 100 in each case. In test [3], the 3T3 Mito., 1 ug/ml heparin (ED50 wild type / ED50 analog x 100%) (% of wild type) turned out to be 0.2. This substance gave a 3T3 Mito., no heparin (ED50 wild type / ED50 analog x 100%) (% of wild type) in test [3] of 0.2.
Consider “human acidic FGF (from UniProt P05230) (ligand)”, for which the FGF-Rc Comp. (ED50 analog / ED50 wild type FGF) in test [1] worked out at 0.5. Besides, in test [3], the 3T3 Mito., 1 ug/ml heparin (ED50 wild type / ED50 analog x 100%) (% of wild type) was 25 and the 3T3 Mito., no heparin (ED50 wild type / ED50 analog x 100%) (% of wild type) was found to be 5.
Consider “bFGF-R48L (from UniProt P09038) (ligand)”, for which the FGF-Rc Comp. (ED50 analog / ED50 wild type FGF) in test [1] stood at 0.16; in test [2], 2. For the same substance, the ACE Mito., no heparin (ED50 wild type / ED50 analog x 100%) (% of wild type) in test [4] amounted to 1.7.
The substance “bFGF-E105S (from UniProt P09038-2) (ligand)” registered an FGF-Rc Comp. (ED50 analog / ED50 wild type FGF) in test [1] of 50. Besides, the FGF-Rc Comp. (ED50 analog / ED50 wild type FGF) in test [2] was found to be 40. Further, in test [3], the 3T3 Mito., 1 ug/ml heparin (ED50 wild type / ED50 analog x 100%) (% of wild type) amounted to 100 and the 3T3 Mito., no heparin (ED50 wild type / ED50 analog x 100%) (% of wild type) was determined as 12.6.
For “bFGF-E100S (from UniProt P09038-2) (ligand)”, the results for the FGF-Rc Comp. (ED50 analog / ED50 wild type FGF) in test [1] and in test [2] were 1.1 and 0.5, respectively.
Regarding “bFGF-R106L (from UniProt P09038-2) (ligand)”, the FGF-Rc Comp. (ED50 analog / ED50 wild type FGF) in test [1] came out at 0.3. In addition, the FGF-Rc Comp. (ED50 analog / ED50 wild type FGF) in test [2] is 0.13. In addition, in test [3], the 3T3 Mito., 1 ug/ml heparin (ED50 wild type / ED50 analog x 100%) (% of wild type) came to 200 and the 3T3 Mito., no heparin (ED50 wild type / ED50 analog x 100%) (% of wild type) stood at 20.
On to “KR128, 129ST (from UniProt P09038-2) (ligand)”, for which the results for the FGF-Rc Comp. (ED50 analog / ED50 wild type FGF) in test [1] and in test [2] were 2 and 0.8, respectively. The substance also had a 3T3 Mito., no heparin (ED50 wild type / ED50 analog x 100%) (% of wild type) in test [3] of 185.
For “bFGF-K128E (from UniProt P09038-2) (ligand)”, in test [3], the 3T3 Mito., 1 ug/ml heparin (ED50 wild type / ED50 analog x 100%) (% of wild type) was 140 and the 3T3 Mito., no heparin (ED50 wild type / ED50 analog x 100%) (% of wild type) amounted to 200.
Regarding “bFGF-C78/96S (from UniProt P09038-2) (ligand)”, the FGF-Rc Comp. (ED50 analog / ED50 wild type FGF) in test [1] stood at 0.2. For the same substance, the FGF-Rc Comp. (ED50 analog / ED50 wild type FGF) in test [2] worked out at 0.1. For the same substance, in test [3], the 3T3 Mito., 1 ug/ml heparin (ED50 wild type / ED50 analog x 100%) (% of wild type) worked out at 160 and the 3T3 Mito., no heparin (ED50 wild type / ED50 analog x 100%) (% of wild type) stood at 118.
Take “bFGF-E108A (from UniProt P09038-2) (ligand)”: the FGF-Rc Comp. (ED50 analog / ED50 wild type FGF) in test [1] and in test [2] was 2.5 each time. In test [3], the 3T3 Mito., no heparin (ED50 wild type / ED50 analog x 100%) (% of wild type) turned out to be 180.
On to “bFGF-E100A (from UniProt P09038-2) (ligand)”, for which the FGF-Rc Comp. (ED50 analog / ED50 wild type FGF) in test [1] worked out at 0.8; in test [2], 1.
For the substance “bFGF-K119S (from UniProt P09038-2) (ligand)”, the FGF-Rc Comp. (ED50 analog / ED50 wild type FGF) in test [1] stood at 0.35. Besides, the FGF-Rc Comp. (ED50 analog / ED50 wild type FGF) in test [2] amounted to 0.25. In test [3], the 3T3 Mito., 1 ug/ml heparin (ED50 wild type / ED50 analog x 100%) (% of wild type) turned out to be 250 and the 3T3 Mito., no heparin (ED50 wild type / ED50 analog x 100%) (% of wild type) was 48.
Consider “bFGF-K27M (from UniProt P09038-2) (ligand)”, for which the FGF-Rc Comp. (ED50 analog / ED50 wild type FGF) in test [1] is 0.3; in test [2], 0.2.
For “bFGF-R118L (from UniProt P09038) (ligand)”, the FGF-Rc Comp. (ED50 analog / ED50 wild type FGF) was found to be 0.5 in test [1] and 0.4 in test [2]. In test [4], this substance showed an ACE Mito., no heparin (ED50 wild type / ED50 analog x 100%) (% of wild type) of 1.8.
As to “bFGF-K128S (from UniProt P09038-2) (ligand)”, the FGF-Rc Comp. (ED50 analog / ED50 wild type FGF) amounted to 0.3 in test [1] and 0.25 in test [2]. Further, the 3T3 Mito., no heparin (ED50 wild type / ED50 analog x 100%) (% of wild type) in test [3] stood at 210.
For R106T (from UniProt P09038-2) (ligand), in test [3], the 3T3 Mito., 1 ug/ml heparin (ED50 wild type / ED50 analog x 100%) (% of wild type) came out at 250 and the 3T3 Mito., no heparin (ED50 wild type / ED50 analog x 100%) (% of wild type) was determined as 210.
In turn, “bFGF-R48A (from UniProt P09038) (ligand)” returned an FGF-Rc Comp. (ED50 analog / ED50 wild type FGF) in test [1] of 0.32. The FGF-Rc Comp. (ED50 analog / ED50 wild type FGF) in test [2] came out at 0.3. Further, in test [4], the ACE Mito., 1 ug/ml heparin (ED50 wild type / ED50 analog x 100%) (% of wild type) came out at 84.2 and the ACE Mito., no heparin (ED50 wild type / ED50 analog x 100%) (% of wild type) was determined as 8.9.
In the case of “bFGF-R90T (from UniProt P09038-2) (ligand)”, the FGF-Rc Comp. (ED50 analog / ED50 wild type FGF) in test [1] was 0.6; in test [2], 0.5. For the same substance, the 3T3 Mito., 1 ug/ml heparin (ED50 wild type / ED50 analog x 100%) (% of wild type) in test [3] amounted to 216. This substance yielded a 3T3 Mito., no heparin (ED50 wild type / ED50 analog x 100%) (% of wild type) in test [3] of 77.
For K95T (from UniProt P09038-2) (ligand), in test [3], the 3T3 Mito., 1 ug/ml heparin (ED50 wild type / ED50 analog x 100%) (% of wild type) was 170 and the 3T3 Mito., no heparin (ED50 wild type / ED50 analog x 100%) (% of wild type) was 100.
“bFGF-K35S (from UniProt P09038-2) (ligand)”: the results for the FGF-Rc Comp. (ED50 analog / ED50 wild type FGF) in test [1] and in test [2] were 0.1 and 0.05, respectively.
Consider “bFGF-R116T (from UniProt P09038-2) (ligand)”, for which, in test [1], the FGF-Rc Comp. (ED50 analog / ED50 wild type FGF) stood at 0.2. In addition, in test [3], the 3T3 Mito., 1 ug/ml heparin (ED50 wild type / ED50 analog x 100%) (% of wild type) worked out at 300 and the 3T3 Mito., no heparin (ED50 wild type / ED50 analog x 100%) (% of wild type) amounted to 50.
“bFGF-R31S (from UniProt P09038-2) (ligand)”: in test [1], the FGF-Rc Comp. (ED50 analog / ED50 wild type FGF) worked out at 1. In test [2], the FGF-Rc Comp. (ED50 analog / ED50 wild type FGF) amounted to 0.8. In test [3], the 3T3 Mito., 1 ug/ml heparin (ED50 wild type / ED50 analog x 100%) (% of wild type) was 100 and the 3T3 Mito., no heparin (ED50 wild type / ED50 analog x 100%) (% of wild type) worked out at 100.
As for “bFGF-D28K (from UniProt P09038-2) (ligand)”, the FGF-Rc Comp. (ED50 analog / ED50 wild type FGF) in test [1] turned out to be 1; in test [2] it was 1.3.
The substance “bFGF-D46A (from UniProt P09038-2) (ligand)” had an FGF-Rc Comp. (ED50 analog / ED50 wild type FGF) in test [1] of 0.5.
Consider “bFGF-V52K (from UniProt P09038-2) (ligand)”, for which the results for the FGF-Rc Comp. (ED50 analog / ED50 wild type FGF) in test [1] and in test [2] were 0.5 and 0.4, respectively.
For “bFGF-C96S (from UniProt P09038-2) (ligand)”, in that order: 0.3 and 0.8.
Substance “bFGF-K55I (from UniProt P09038-2) (ligand)” showed an FGF-Rc Comp. (ED50 analog / ED50 wild type FGF) in test [1] of 2. The FGF-Rc Comp. (ED50 analog / ED50 wild type FGF) in test [2] was found to be 1.6. Further, in test [3], the 3T3 Mito., 1 ug/ml heparin (ED50 wild type / ED50 analog x 100%) (% of wild type) is 8 and the 3T3 Mito., no heparin (ED50 wild type / ED50 analog x 100%) (% of wild type) came to 1.
For “bFGF-D50A (from UniProt P09038-2) (ligand)”, the FGF-Rc Comp. (ED50 analog / ED50 wild type FGF) in test [1] and in test [2] was 2.5 in each case.
“bFGF-H59N (from UniProt P09038-2) (ligand)”: the FGF-Rc Comp. (ED50 analog / ED50 wild type FGF) in test [1] and in test [2] was 0.4 throughout. The substance also gave a 3T3 Mito., no heparin (ED50 wild type / ED50 analog x 100%) (% of wild type) in test [3] of 315.
In test [1], “bFGF-D99A (from UniProt P09038-2) (ligand)” had an FGF-Rc Comp. (ED50 analog / ED50 wild type FGF) of 0.04. In test [2], the FGF-Rc Comp. (ED50 analog / ED50 wild type FGF) was 0.03. In test [3], the 3T3 Mito., 1 ug/ml heparin (ED50 wild type / ED50 analog x 100%) (% of wild type) was determined as 280 and the 3T3 Mito., no heparin (ED50 wild type / ED50 analog x 100%) (% of wild type) is 150.
